{"source": "patent US7732178B2", "about": "“Laccase enzymes and their uses” (AB Enzymes Oy, priority 2004, dated 2010)", "molecules": {"B1": {"name": "MaL: well-known fungal laccase from Melanocarpus albomyces (protein, UniProt Q70KY3 51-609, looked up)", "Laccase-1": "EPTCNTPSNRACWSDGFDINTDYEVSTPDTGVTQSYVFNLTEVDNWMGPDGVVKEKVMLINGNIMGPNIVANWGDTVEVTVINNLVTNGTSIHWHGIHQKDTNLHDGANGVTECPIPPKGGQRTYRWRARQYGTSWYHSHFSAQYGNGVVGTIQINGPASLPYDIDLGVFPITDYYYRAADDLVHFTQNNAPPFSDNVLINGTAVNPNTGEGQYANVTLTPGKRHRLRILNTSTENHFQVSLVNHTMTVIAADMVPVNAMTVDSLFLAVGQRYDVVIDASRAPDNYWFNVTFGGQAACGGSLNPHPAAIFHYAGAPGGLPTDEGTPPVDHQCLDTLDVRPVVPRSVPVNSFVKRPDNTLPVALDLTGTPLFVWKVNGSDINVDWGKPIIDYILTGNTSYPVSDNIVQVDAVDQWTYWLIENDPEGPFSLPHPMHLHGHDFLVLGRSPDVPAASQQRFVFDPAVDLARLNGDNPPRRDTTMLPAGGWLLLAFRTDNPGAWLFHCHIAWHVSGGLSVDFLERPADLRQRISQEDEDDFNRVCDEWRAYWPTNPYPKIDSGL"}, "B2": {"name": "TaLcc3: Thielavia arenaria ALKO 4197 laccase, SEQ ID NO: 43, produced in Trichoderma reesei (protein)", "chain": "MVCLQYQLTAACFAVLAVVTTPASCSPVQPSPVHDLLPRQTIIPGGKPCGQNNATNRGCWKNNWNITTDYEVDTPPAFNTRVYDLHITNVTNWLGPDGVRKPAMLINGSFPGPTISADWGDYIIVNVHNDMQDNGTSIHWHGIRQLGESNQDGANGVTECPIPPGSSKTYDFHVTQYGTSWYHSHYSNQYGNGVVGALIVRGPASANYDIDLGPYLISDYYYETADRLHLRAELVSNGPPPDSDNILFRGKNINPKRAGSGSYDRLVLTPGKKHLIRLINASVDNSFVISLVGHNFTVISTDMVPITPVVRSSLFMGVGQRYDVIVEANQPVGNYWLNATLEAQNNCGHSVNPFPAAIVQYEGASSTALPTNRGTPLTATCNGEKGFSPIVKRTVSSSLFQPSTLPVSLEFPTTDRGQVFEWRVKNTPISVEWEHPVLEYILQGNTSFPAKANLIEVPQANVWTFWVIQNGFGLPHPIHLHGHDFLVLGVGNGTFDAASMRGLLNFNNPVRRDVEQMPGNGWLVIAFKTDNPGCWLMHCHIGWHVAMGLGIQFLERRSDILALMKLDQMVPNCEAWRAYARTSPYLPKLDSGLKRGVEMREGMEPAVRRIG", "modifications": "Thielavia arenaria ALKO4197; (1)..(611) Deduced amino acid sequence of Thielavia arenaria LAKO4197 TaLcc3"}}, "key": {"[1]": {"assay": "Specific activity towards syringaldazine", "assay_type": "biochemical", "conditions": "25 mM MES buffer, pH 5.5", "protocol": "(§1) Specific activities of the purified T. arenaria and C. thermophilum laccases were determined towards different laccase substrates."}, "[2]": {"assay": "Specific activity towards guaiacol", "assay_type": "biochemical", "conditions": "25 mM MES buffer, pH 5.5", "protocol": "as §1"}, "[3]": {"assay": "Specific activity towards ABTS", "assay_type": "biochemical", "conditions": "25 mM succinate buffer pH 4.5, 25° C.", "protocol": "The activity assay was carried out in accordance with the method developed by Niku-Paavola et al. (1988). The sample was diluted with 0.025 M succinate buffer, pH 4.5. […] The activity is expressed as nano katals.\nas §1"}, "[4]": {"assay": "Specific activity towards di-methoxy-phenol (DMP)", "assay_type": "biochemical", "conditions": "25 mM MES buffer, pH 5.5", "protocol": "as §1"}, "[5]": {"assay": "Isoelectric focusing (pI)", "assay_type": "physicochemical", "conditions": "pH range 3-9", "protocol": "Molecular weight of the T. arenaria and C. thermophilum laccases were determined on SDS-PAGE according to Laemmli (1970) The gels used in the SDS-PAGE analysis were ready-made 12% Tris HCl gels (BioRad). Protein bands were visualized by staining with Coomassie Brilliant Blue (R 350; Pharmacia) and compared with molecular weight markers (Prestained Protein Marker Broad Range #7708S; New England BioLabs, Beverly, Mass.). The molecular weight of the both laccases was approximately 80 kDa. The isoelectric point of the laccases was determined with isoelectric focusing within the pH range of 3-9 (Pharmalyte IEF, Pharmacia) on a LKB 2117 Multiphor II Electrophoresis System (LKB Pharmacia, Bromma, Sweden) according to the manufacturer's instructions.\nThe purified recombinant Thielavia and Chaetomium laccases were characterized in terms of pH optimum, thermal stability, and pI as described in Example 2. The molecular weight was determined by MALDI-TOF mass spectrometry on a Ultraflex™ time-of-flight instrument (BrukerDaltonics, Germany) as previously described (Palonen et al., 2003). The redox-potentials of the T1 coppers of for CtLcc, and TaLcc2 laccases were determined by photometric copper titration in 0.1 M KH2PO4 (pH 6.0) as described by Xu et al. (1996) using the redox titrant couple K3Fe(CN)6/K4Fe(CN)6. The redox potential of TaLcc1 was determined with a combined Pt—AgCl/KCl microelectrode at pH 5.0 according to Sigoillot et al (2004). The characterization results are collected to Table 14."}}}
{"molecule": "B1", "values": [{"measurement": "Specific activity on syringaldazin", "setting": "[1]", "result": 380, "unit": "nkat/mg"}, {"measurement": "Specific activity on guaiacol", "setting": "[2]", "result": 90, "unit": "nkat/mg"}, {"measurement": "Specific activity on ABTS", "setting": "[3]", "result": 840, "unit": "nkat/mg"}, {"measurement": "Specific activity on DMP", "setting": "[4]", "result": 290, "unit": "nkat/mg"}]}
{"molecule": "B2", "values": [{"measurement": "Specific activity on syringaldazin", "setting": "[1]", "result": 3.6, "unit": "nkat/mg"}, {"measurement": "Specific activity on guaiacol", "setting": "[2]", "result": 0, "unit": "nkat/mg"}, {"measurement": "pI", "setting": "[5]", "result": "7.0-8.0"}, {"measurement": "Specific activity on ABTS", "setting": "[3]", "result": 8.3, "unit": "nkat/mg"}, {"measurement": "Specific activity on DMP", "setting": "[4]", "result": 2.1, "unit": "nkat/mg"}]}
